Biological target: SARS-CoV-2 spike protein (SARS-CoV-2, UniProt P0DTC2 14-1213)

B1: M4-4 (antibody, V domains shown)
VH: EVQLVESGGGLVKPGGSLRLSCAASGFTFSSRGMSWVRQAPGKGLEWVSTISFGDIYTYYPDSVKGRFTISRDNAKNSLYLQMNSLRAEDTAVYYCARPNDGYFDYWGQGTLVTVSS
VL: DIVMTQSPATLSVSPGERATLSCKASQDVSTDVAWYQQKPGQAPRLLIYWASTRHTGVPDRFSGSGSGTDFTLTISSLQSEDFAVYYCQQHYSTPWTFGGGTKVEIKR
dissociation constant against REGN10933 and REGN10987: ~10 fold

Source: patent US20230417748A1 (GREEN CROSS, published 2023)
